For 1 substance, response bound results are on record in article PMC4177983.

For this assay, the target named is SF162 soluble Env gp140 trimer (HIV-1 isolate SF162 (clade B)). In words: SPR; 1273 RUs of SF162 gp140 trimer amine-coupled on a CM5 chip; dual injection, 3 µM 4E10 Fv flowed 5 minutes before and during 10 nM Fab b12 or 447-52D; HBS-EP+, 25°C. In general terms: SPR reads the build-up and loss of mass on a sensor chip optically.

In turn, 4E10 Fv yielded a response bound at 3 µM 4E10 Fv of 90 RUs.
